Experimental data as given in patent US4413056A, “Process for the preparation of penicillins and penicillin derivatives” (Beecham Group Limited, priority 1980, dated 1983).

B1: Protease type VII: Protease type VII B amyloliquefaciens, Nagarase; Subtilisin BPN, supplier Sigma (protein, UniProt P00782 108-382, looked up)
Subtilisin BPN': AQSVPYGVSQIKAPALHSQGYTGSNVKVAVIDSGIDSSHPDLKVAGGASMVPSETNPFQDNNSHGTHVAGTVAALNNSIGVLGVAPSASLYAVKVLGADGSGQYSWIINGIEWAIANNMDVINMSLGGPSGSAALKAAVDKAVASGVVVVAAAGNEGTSGSSSTVGYPGKYPSVIAVGAVDSSNQRASFSSVGPELDVMAPGVSIQSTLPGNKYGAYNGTSMASPHVAGAAALILSKHPNWTNTQVRSSLENTTTKLGDSFYYGKGLINVQAAAQ
B2: Alcalase 1.5 M: Subtilisin A from B licheniformis, supplier Novo (protein, UniProt P00780 106-379, looked up)
Subtilisin Carlsberg: AQTVPYGIPLIKADKVQAQGFKGANVKVAVLDTGIQASHPDLNVVGGASFVAGEAYNTDGNGHGTHVAGTVAALDNTTGVLGVAPSVSLYAVKVLNSSGSGSYSGIVSGIEWATTNGMDVINMSLGGASGSTAMKQAVDNAYAKGVVVVAAAGNSGSSGNTNTIGYPAKYDSVIAVGAVDSNSNRASFSSVGAELEVMAPGAGVYSTYPTNTYATLNGTSMASPHVAGAAALILSKHPNLSASQVRNRLSSTATYLGSSFYYGKGLINVEAAAQ
B3: Alcalase 0.6 L: Subtilisin A from B licheniformis, supplier Novo (protein, UniProt P00780 106-379, looked up)
Subtilisin Carlsberg: B2 Subtilisin Carlsberg
B4: Subtilisin A: Subtilisin A, B licheniformis, supplier Novo; alkaline microbial serine proteinase EC 3.4.21.14 (protein, UniProt P00780 106-379, looked up)
Subtilisin Carlsberg: B2 Subtilisin Carlsberg
B5: Protease Bacterial: Protease Bacterial (Subtilisin A) B Sublitisin, supplier CP (protein, UniProt P00780 106-379, looked up)
Subtilisin Carlsberg: B2 Subtilisin Carlsberg
B6: Proteinase D: Proteinase D (Subtilisin A) B licheniformis, supplier ABM (protein, UniProt P00780 106-379, looked up)
Subtilisin Carlsberg: B2 Subtilisin Carlsberg
B7: Protease type VIII: Protease type VIII B subtilis, Subtilisin Carlsberg; Subtilopeptidase A, supplier Sigma (protein, UniProt P00780 106-379, looked up)
Subtilisin Carlsberg: B2 Subtilisin Carlsberg
B8: Protease type XI: Protease type XI Tritirachium album Proteinase K, supplier Sigma (protein, UniProt P06873 106-384, looked up)
Proteinase K: AAQTNAPWGLARISSTSPGTSTYYYDESAGQGSCVYVIDTGIEASHPEFEGRAQMVKTYYYSSRDGNGHGTHCAGTVGSRTYGVAKKTQLFGVKVLDDNGSGQYSTIIAGMDFVASDKNNRNCPKGVVASLSLGGGYSSSVNSAAARLQSSGVMVAVAAGNNNADARNYSPASEPSVCTVGASDRYDRRSSFSNYGSVLDIFGPGTSILSTWIGGSTRSISGTSMATPHVAGLAAYLMTLGKTTAASACRYIADTANKGDLSNIPFGTVNLLAYNNYQA

Test: De-esterification of the penicillin C3 benzyl ester by a number of enzymes, ester disappearance assayed by HPLC
Assay type: biochemical
Settings: enzyme solution 0.2 ml (5 mg/ml) plus ester solution 2 ml, phosphate buffer pH 7.8, 37° C., 16 hours
Procedure: In order to determine the amount of hydrolysis of the benzyl ester of the C3 carboxyl group by a number of enzymes, the ester was subjected, in aqueous reaction mixture, to the action of the particular enzyme using the following procedure and assay procedure.
Ester solution--Ester (50 mg) was added slowly to stirred 0.25 M, pH 7.8 phosphate buffer (1 ml). When the ester was dissolved distilled water (9 ml) was added.
Enzyme solution--Enzyme (5 mg) was dissolved in distilled water (1 ml).
Enzymation--Enzyme solution (0.2 ml) was added to ester solution (2 ml) and the mixture was incubated at 37° C. for 16 hours.
Assay--When the incubation was complete, the reaction mixture was filtered through glass fibre (Whatman GF/A) and assayed for disappearance of the ester by HPLC.
Extent of conversion of ester to acid is determined as follows: [formula]
In table 1 the extent of conversion of ester to acid is shown for a number of samples of the enzyme of the present invention.

Row | Molecule | Conversion (percentage conversion of the ester to 6[2(2-carboxy)-2-thien-3ylacetamid 6methoxy] penicillin) [%]
1 | B1 | 78.0
2 | B2 | 88.6
3 | B3 | 88.0
4 | B4 | 88.8
5 | B5 | 91.7
6 | B6 | 100.0
7 | B7 | 89.0
8 | B8 | 61.0

Test: De-esterification of the benzyl ester using subtilisin A at controlled pH, ester and acid assayed by HPLC
Assay type: biochemical
Settings: after 4 hours reaction, 37° C., pH 7.5, subtilisin A 28.16 mg
Procedure: Benzyl 6β-[2-(2-carboxy)-2-thien-3'-ylacetamido 6α-methoxy]penicillanate (0.825 g) was dissolved by adding slowly to stirred 0.25 M, pH 7.8 phosphate buffer (8 ml).
Subtilisin A (28.16 mg) was dissolved in distilled water (10 ml).
Ester solution (3 ml) was added to distilled water (7 ml) and heated to 37° C. in a stirred, water jacketed glass vessel (60 ml) and the pH adjusted to 7.5 by the addition of 1 M NaOH. Subtilisin A solution (10 ml) was heated to 37° C. and added to the ester. The mixture was stirred, the temperature maintained at 37° C. and the pH maintained at 7.5 by the addition of 0.1 M sodium hydroxide.
Samples were removed at appropriate intervals and assayed for ester and acid using the two HPLC systems described in Example 1.

Row | Molecule | conversion of ester to acid [%]
9 | B4 | 88
